Measured values from the supplement of paper PMC9112550, “Optimization of the antimicrobial peptide Bac7 by deep mutational scanning” (BMC Biology, 2022).
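Further: peptides expressed intracellularly from a pBAD plasmid library in pooled LB shake-flask culture, induced with 0.3% L-arabinose, DNA abundance read by NGS, three biological replicates, DESeq2 with apeglm shrinkage.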

The sequences below were run on Escherichia coli TOP10 (assay: shrunken log2 fold change of peptide-encoding DNA abundance (4.5 h post-induction vs induction); higher = less antimicrobial activity (less host growth inhibition)). Conditions: time post-induction: 4.5 h; library: site-saturation at positions 5, 18, 19, 20.
For RRIRDRPPRLPRPRPRPRCHPRP, the “shrunken log2 fold change” value was -0.0835. RRIRNRPPRLPRPRPRPKGKPRP was tested, and the “shrunken log2 fold change” value was 0.0351. In the case of RRIRTRPPRLPRPRPRPLRLPRP, the “shrunken log2 fold change” value is reported as 0.219. RRIRGRPPRLPRPRPRPIEFPRP was tested, and the “shrunken log2 fold change” value was 0.0349. In the case of RRIRKRPPRLPRPRPRPEFHPRP, the “shrunken log2 fold change” value is reported as 0.131. RRIRHRPPRLPRPRPRPSMNPRP was tested, and the “shrunken log2 fold change” value was -0.253. With RRIRYRPPRLPRPRPRPAHCPRP the “shrunken log2 fold change” value was 0.0564. With RRIRGRPPRLPRPRPRPVERPRP the “shrunken log2 fold change” value was 0.5. For RRIRARPPRLPRPRPRPEKWPRP, the “shrunken log2 fold change” value was 0.244. With RRIRSRPPRLPRPRPRPWHMPRP the “shrunken log2 fold change” value was 0.17. With RRIRNRPPRLPRPRPRPLLPPRP the “shrunken log2 fold change” value was 0.0144. In the case of RRIRSRPPRLPRPRPRPWRMPRP, the “shrunken log2 fold change” value is reported as -0.181. In the case of RRIRTRPPRLPRPRPRPHSSPRP, the “shrunken log2 fold change” value is reported as -0.119. With RRIRDRPPRLPRPRPRPNKMPRP the “shrunken log2 fold change” value was -0.195. In the case of RRIRVRPPRLPRPRPRPWNAPRP, the “shrunken log2 fold change” value is reported as -0.0893. In the case of RRIRMRPPRLPRPRPRPTGLPRP, the “shrunken log2 fold change” value is reported as 0.961. For RRIRHRPPRLPRPRPRPNDKPRP, the “shrunken log2 fold change” value was -0.526. With RRIRTRPPRLPRPRPRPYYAPRP the “shrunken log2 fold change” value was -0.489. With RRIRDRPPRLPRPRPRPQIPPRP the “shrunken log2 fold change” value was -0.085. For RRIRQRPPRLPRPRPRPAVRPRP, the “shrunken log2 fold change” value was -0.0154. For RRIRDRPPRLPRPRPRPYAGPRP, the “shrunken log2 fold change” value was 0.0325. In the case of RRIRPRPPRLPRPRPRPGKIPRP, the “shrunken log2 fold change” value is reported as -0.168. For RRIRTRPPRLPRPRPRPWEAPRP, the “shrunken log2 fold change” value was 0.337. RRIRCRPPRLPRPRPRPAVIPRP was tested, and the “shrunken log2 fold change” value was -0.383. For RRIRCRPPRLPRPRPRPRDQPRP, the “shrunken log2 fold change” value was 0.278. RRIRLRPPRLPRPRPRPEQHPRP was tested, and the “shrunken log2 fold change” value was 0.243. For RRIRQRPPRLPRPRPRPVEWPRP, the “shrunken log2 fold change” value was 0.0152. In the case of RRIRLRPPRLPRPRPRPQFDPRP, the “shrunken log2 fold change” value is reported as -0.293. For RRIRCRPPRLPRPRPRPFSKPRP, the “shrunken log2 fold change” value was -0.203. With RRIRERPPRLPRPRPRPIVVPRP the “shrunken log2 fold change” value was -0.29. With RRIRPRPPRLPRPRPRPMMYPRP the “shrunken log2 fold change” value was -0.198. RRIRCRPPRLPRPRPRPPPSPRP was tested, and the “shrunken log2 fold change” value was 1.61. In the case of RRIRRRPPRLPRPRPRPGGEPRP, the “shrunken log2 fold change” value is reported as 0.356. For RRIRVRPPRLPRPRPRPQCTPRP, the “shrunken log2 fold change” value was -0.149. With RRIRSRPPRLPRPRPRPNIAPRP the “shrunken log2 fold change” value was 0.0275. With RRIRERPPRLPRPRPRPHDGPRP the “shrunken log2 fold change” value was -0.532. In the case of RRIRERPPRLPRPRPRPSQHPRP, the “shrunken log2 fold change” value is reported as -0.49. In the case of RRIRARPPRLPRPRPRPTKLPRP, the “shrunken log2 fold change” value is reported as -0.00644. With RRIRYRPPRLPRPRPRPKIQPRP the “shrunken log2 fold change” value was -0.68. With RRIRDRPPRLPRPRPRPAWAPRP the “shrunken log2 fold change” value was 0.713. With RRIRCRPPRLPRPRPRPFFEPRP the “shrunken log2 fold change” value was -0.0214. For RRIRFRPPRLPRPRPRPHLLPRP, the “shrunken log2 fold change” value was -0.428. For RRIRNRPPRLPRPRPRPACTPRP, the “shrunken log2 fold change” value was -0.0652. RRIRVRPPRLPRPRPRPYVQPRP was tested, and the “shrunken log2 fold change” value was -0.918. In the case of RRIRRRPPRLPRPRPRPLPHPRP, the “shrunken log2 fold change” value is reported as 0.485. For RRIRPRPPRLPRPRPRPWRSPRP, the “shrunken log2 fold change” value was 0.0793. RRIRKRPPRLPRPRPRPDFYPRP was tested, and the “shrunken log2 fold change” value was -0.0302. RRIRKRPPRLPRPRPRPAYYPRP was tested, and the “shrunken log2 fold change” value was -0.0726. For RRIRLRPPRLPRPRPRPPAKPRP, the “shrunken log2 fold change” value was 0.529. For RRIRKRPPRLPRPRPRPKNEPRP, the “shrunken log2 fold change” value was 0.345. In the case of RRIRYRPPRLPRPRPRPFDTPRP, the “shrunken log2 fold change” value is reported as -1.81. With RRIRCRPPRLPRPRPRPADRPRP the “shrunken log2 fold change” value was -0.0122. With RRIRIRPPRLPRPRPRPTRNPRP the “shrunken log2 fold change” value was -0.268. RRIRPRPPRLPRPRPRPKDKPRP was tested, and the “shrunken log2 fold change” value was -0.125. With RRIRPRPPRLPRPRPRPPYPPRP the “shrunken log2 fold change” value was -0.0364. In the case of RRIRARPPRLPRPRPRPDQYPRP, the “shrunken log2 fold change” value is reported as 0.151. With RRIRDRPPRLPRPRPRPGRQPRP the “shrunken log2 fold change” value was 0.0393. In the case of RRIRNRPPRLPRPRPRPCTDPRP, the “shrunken log2 fold change” value is reported as 0.233. In the case of RRIRIRPPRLPRPRPRPAIYPRP, the “shrunken log2 fold change” value is reported as -0.00708. RRIRMRPPRLPRPRPRPSQIPRP was tested, and the “shrunken log2 fold change” value was -0.03. For RRIRMRPPRLPRPRPRPVMGPRP, the “shrunken log2 fold change” value was 0.387. RRIRYRPPRLPRPRPRPNRPPRP was tested, and the “shrunken log2 fold change” value was 0.000655. In the case of RRIRYRPPRLPRPRPRPTAGPRP, the “shrunken log2 fold change” value is reported as 0.111. With RRIRYRPPRLPRPRPRPTTVPRP the “shrunken log2 fold change” value was -0.243. With RRIRARPPRLPRPRPRPNGAPRP the “shrunken log2 fold change” value was 0.0281. In the case of RRIRRRPPRLPRPRPRPSMAPRP, the “shrunken log2 fold change” value is reported as -0.142. In the case of RRIRRRPPRLPRPRPRPFLGPRP, the “shrunken log2 fold change” value is reported as 0.187. RRIRKRPPRLPRPRPRPIGLPRP was tested, and the “shrunken log2 fold change” value was 0.0815. With RRIRCRPPRLPRPRPRPMEQPRP the “shrunken log2 fold change” value was -0.00403. RRIRYRPPRLPRPRPRPQPDPRP was tested, and the “shrunken log2 fold change” value was -0.0504. With RRIRNRPPRLPRPRPRPVMWPRP the “shrunken log2 fold change” value was 0.351. With RRIRVRPPRLPRPRPRPNNTPRP the “shrunken log2 fold change” value was -0.418. With RRIRIRPPRLPRPRPRPGQAPRP the “shrunken log2 fold change” value was -0.0154. RRIRRRPPRLPRPRPRPIGMPRP was tested, and the “shrunken log2 fold change” value was -0.0232. With RRIRRRPPRLPRPRPRPPYEPRP the “shrunken log2 fold change” value was 0.492.
